Data: patent US8722052B2, “Vaccinia virus protein A46 peptide and use thereof” (priority 2008, dated 2014)

Assays:
TLR2 = biological target: T1, TLR2 (Mus musculus, UniProt Q9QUN7); assay: TLR2 response in murine cells; format: cell-based
T1 construct: endogenous in cells

IRF3 = assay: LPS-induced IRF3 activation, IRF3-GAL4 reporter assay in HEK293_TLR4 cells; format: cell-based, human; details: peptide 1, 5 or 10 μM, 10 ng/ml LPS 6 h
Description: FIG. 26 is a bar chart showing the effect of A464 on LPS-induced IRF3 activation in HEK293 cells. HEK293_TLR4 cells were seeded in 96 well plate (1.5×10^5 cells/ml) 24 hours before transfection with the plasmid DNA. Cells were transfected with a plasmid encoding IRF3-GAL4, together with pFR-luciferase and TK-Renilla reporter gene plasmids. The total amount of plasmid DNA transfected into the cells was made up to 230 ng/well by adding pcDNA. A464 (SEQ ID NO. 20) was added to the cells at a concentration of 1, 5 or 10 μM the next day, and cells were stimulated with 10 ng/ml LPS 1 hour after treatment with the peptide for 6 hours. Cells were harvested and assayed for IRF3 activation by reporter gene assay. No peptides were added to the control wells (black bars). Data is representative of two experiments, each performed in triplicate and is expressed as mean fold induction±s.d. relative to control levels;
HEK293 cells were transfected using GeneJuice® a proprietary non-toxic transfection reagent. 200 μl/well cells at a density of 1×10^5 cells/ml were seeded the day before transfection. 0.8 μl of GeneJuice was mixed with 9.2 μl of serum-free DMEM (SFM) per transfection and incubated for 5 min at room temperature before adding the appropriate amount of the plasmid DNA. […] Luciferase activity was analysed using a luminometer.

T1 sequence (Q9QUN7 25-784): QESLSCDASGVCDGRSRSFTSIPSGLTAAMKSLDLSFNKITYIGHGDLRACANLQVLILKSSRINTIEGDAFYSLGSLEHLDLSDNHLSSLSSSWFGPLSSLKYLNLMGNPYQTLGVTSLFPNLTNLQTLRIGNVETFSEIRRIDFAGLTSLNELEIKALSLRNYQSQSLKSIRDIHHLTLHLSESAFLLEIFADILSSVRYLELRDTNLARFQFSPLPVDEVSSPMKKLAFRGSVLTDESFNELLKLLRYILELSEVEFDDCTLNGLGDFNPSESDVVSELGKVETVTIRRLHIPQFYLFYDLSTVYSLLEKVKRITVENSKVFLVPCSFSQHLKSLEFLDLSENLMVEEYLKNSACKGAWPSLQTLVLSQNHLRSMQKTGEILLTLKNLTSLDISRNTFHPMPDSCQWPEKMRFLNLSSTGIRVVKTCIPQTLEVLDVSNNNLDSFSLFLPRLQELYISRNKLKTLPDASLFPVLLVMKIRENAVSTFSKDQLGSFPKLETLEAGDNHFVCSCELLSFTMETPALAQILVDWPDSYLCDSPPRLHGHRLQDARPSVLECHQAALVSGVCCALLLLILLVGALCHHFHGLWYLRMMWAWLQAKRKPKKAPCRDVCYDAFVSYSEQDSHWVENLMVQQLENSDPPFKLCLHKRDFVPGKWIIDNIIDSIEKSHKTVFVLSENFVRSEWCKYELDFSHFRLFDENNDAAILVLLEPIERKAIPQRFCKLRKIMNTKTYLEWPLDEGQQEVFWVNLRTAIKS

## KYSFKLILAEYRRRRRRRRR [Peptide A464]
TLR2
  effect on TLR2 in murine cells: unaffected
IRF3
  inhibition of LPS-induced IRF3 activation: completely inhibited LPS-induced IRF3 activation at 1 μM
